From patent US20260317437 (published 2026)

Target: GCGR extracellular domain (human, UniProt P47871)
Test: SPR

Chain of GCGR extracellular domain (P47871 26-477): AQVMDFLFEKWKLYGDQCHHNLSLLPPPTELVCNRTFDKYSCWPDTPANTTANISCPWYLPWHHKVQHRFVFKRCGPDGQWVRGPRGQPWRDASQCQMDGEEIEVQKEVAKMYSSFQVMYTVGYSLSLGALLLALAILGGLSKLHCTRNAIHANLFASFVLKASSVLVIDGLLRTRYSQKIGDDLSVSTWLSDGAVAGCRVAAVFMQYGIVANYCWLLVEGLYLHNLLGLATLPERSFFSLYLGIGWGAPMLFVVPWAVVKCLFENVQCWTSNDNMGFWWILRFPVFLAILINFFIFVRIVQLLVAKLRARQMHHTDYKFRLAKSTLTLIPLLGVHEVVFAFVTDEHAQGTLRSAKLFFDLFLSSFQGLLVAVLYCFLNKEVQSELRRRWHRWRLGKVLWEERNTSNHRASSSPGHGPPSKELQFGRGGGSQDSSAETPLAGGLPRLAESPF

Kd | Binder
0.766 nM | VL S93R (antibody, V domains shown) VH: EVQLVESGGGLVQPGGSLRLSCAASGFNIYYNYIHWVRQAPGKGLEWVAEFSPYSGSTYYADSVKGRFTISADTSKNTAYLQMNSLRAEDTAVYYCARSAAIVDWYDYFKGFDYWGQGTLVTVSS VL: DIQMTQSPSSLSASVGDRVTITCRASQSVSSAVAWYQQKPGKAPKLLIYSASSLYSGVPSRFSGSRSGTDFTLTISSLQPEDFATYYCQQYGRYLYTFGQGTKVEIK
5.59 nM | VL S93F (antibody, V domains shown) VH: EVQLVESGGGLVQPGGSLRLSCAASGFNIYYNYIHWVRQAPGKGLEWVAEFSPYSGSTYYADSVKGRFTISADTSKNTAYLQMNSLRAEDTAVYYCARSAAIVDWYDYFKGFDYWGQGTLVTVSS VL: DIQMTQSPSSLSASVGDRVTITCRASQSVSSAVAWYQQKPGKAPKLLIYSASSLYSGVPSRFSGSRSGTDFTLTISSLQPEDFATYYCQQYGFYLYTFGQGTKVEIK
194 nM | VH Y31T (antibody, V domains shown) VH: EVQLVESGGGLVQPGGSLRLSCAASGFNIYTNYIHWVRQAPGKGLEWVAEFSPYSGSTYYADSVKGRFTISADTSKNTAYLQMNSLRAEDTAVYYCARSAAIVDWYDYFKGFDYWGQGTLVTVSS VL: DIQMTQSPSSLSASVGDRVTITCRASQSVSSAVAWYQQKPGKAPKLLIYSASSLYSGVPSRFSGSRSGTDFTLTISSLQPEDFATYYCQQYGSYLYTFGQGTKVEIK
4.63 nM | VH Y30L (antibody, V domains shown) VH: EVQLVESGGGLVQPGGSLRLSCAASGFNILYNYIHWVRQAPGKGLEWVAEFSPYSGSTYYADSVKGRFTISADTSKNTAYLQMNSLRAEDTAVYYCARSAAIVDWYDYFKGFDYWGQGTLVTVSS VL: DIQMTQSPSSLSASVGDRVTITCRASQSVSSAVAWYQQKPGKAPKLLIYSASSLYSGVPSRFSGSRSGTDFTLTISSLQPEDFATYYCQQYGSYLYTFGQGTKVEIK
24.8 nM | VH Y30T (antibody, V domains shown) VH: EVQLVESGGGLVQPGGSLRLSCAASGFNITYNYIHWVRQAPGKGLEWVAEFSPYSGSTYYADSVKGRFTISADTSKNTAYLQMNSLRAEDTAVYYCARSAAIVDWYDYFKGFDYWGQGTLVTVSS VL: DIQMTQSPSSLSASVGDRVTITCRASQSVSSAVAWYQQKPGKAPKLLIYSASSLYSGVPSRFSGSRSGTDFTLTISSLQPEDFATYYCQQYGSYLYTFGQGTKVEIK
2.38 nM | VL S93H (antibody, V domains shown) VH: EVQLVESGGGLVQPGGSLRLSCAASGFNIYYNYIHWVRQAPGKGLEWVAEFSPYSGSTYYADSVKGRFTISADTSKNTAYLQMNSLRAEDTAVYYCARSAAIVDWYDYFKGFDYWGQGTLVTVSS VL: DIQMTQSPSSLSASVGDRVTITCRASQSVSSAVAWYQQKPGKAPKLLIYSASSLYSGVPSRFSGSRSGTDFTLTISSLQPEDFATYYCQQYGHYLYTFGQGTKVEIK
2.05 nM | VL Y94L (antibody, V domains shown) VH: EVQLVESGGGLVQPGGSLRLSCAASGFNIYYNYIHWVRQAPGKGLEWVAEFSPYSGSTYYADSVKGRFTISADTSKNTAYLQMNSLRAEDTAVYYCARSAAIVDWYDYFKGFDYWGQGTLVTVSS VL: DIQMTQSPSSLSASVGDRVTITCRASQSVSSAVAWYQQKPGKAPKLLIYSASSLYSGVPSRFSGSRSGTDFTLTISSLQPEDFATYYCQQYGSLLYTFGQGTKVEIK
3.02 nM | VL Y94H (antibody, V domains shown) VH: EVQLVESGGGLVQPGGSLRLSCAASGFNIYYNYIHWVRQAPGKGLEWVAEFSPYSGSTYYADSVKGRFTISADTSKNTAYLQMNSLRAEDTAVYYCARSAAIVDWYDYFKGFDYWGQGTLVTVSS VL: DIQMTQSPSSLSASVGDRVTITCRASQSVSSAVAWYQQKPGKAPKLLIYSASSLYSGVPSRFSGSRSGTDFTLTISSLQPEDFATYYCQQYGSHLYTFGQGTKVEIK
2.46 nM | VL Y94V (antibody, V domains shown) VH: EVQLVESGGGLVQPGGSLRLSCAASGFNIYYNYIHWVRQAPGKGLEWVAEFSPYSGSTYYADSVKGRFTISADTSKNTAYLQMNSLRAEDTAVYYCARSAAIVDWYDYFKGFDYWGQGTLVTVSS VL: DIQMTQSPSSLSASVGDRVTITCRASQSVSSAVAWYQQKPGKAPKLLIYSASSLYSGVPSRFSGSRSGTDFTLTISSLQPEDFATYYCQQYGSVLYTFGQGTKVEIK
1.92 nM | VL Y94D (antibody, V domains shown) VH: EVQLVESGGGLVQPGGSLRLSCAASGFNIYYNYIHWVRQAPGKGLEWVAEFSPYSGSTYYADSVKGRFTISADTSKNTAYLQMNSLRAEDTAVYYCARSAAIVDWYDYFKGFDYWGQGTLVTVSS VL: DIQMTQSPSSLSASVGDRVTITCRASQSVSSAVAWYQQKPGKAPKLLIYSASSLYSGVPSRFSGSRSGTDFTLTISSLQPEDFATYYCQQYGSDLYTFGQGTKVEIK
2.23 nM | VL Y94F (antibody, V domains shown) VH: EVQLVESGGGLVQPGGSLRLSCAASGFNIYYNYIHWVRQAPGKGLEWVAEFSPYSGSTYYADSVKGRFTISADTSKNTAYLQMNSLRAEDTAVYYCARSAAIVDWYDYFKGFDYWGQGTLVTVSS VL: DIQMTQSPSSLSASVGDRVTITCRASQSVSSAVAWYQQKPGKAPKLLIYSASSLYSGVPSRFSGSRSGTDFTLTISSLQPEDFATYYCQQYGSFLYTFGQGTKVEIK
2.18 nM | VL S93Q (antibody, V domains shown) VH: EVQLVESGGGLVQPGGSLRLSCAASGFNIYYNYIHWVRQAPGKGLEWVAEFSPYSGSTYYADSVKGRFTISADTSKNTAYLQMNSLRAEDTAVYYCARSAAIVDWYDYFKGFDYWGQGTLVTVSS VL: DIQMTQSPSSLSASVGDRVTITCRASQSVSSAVAWYQQKPGKAPKLLIYSASSLYSGVPSRFSGSRSGTDFTLTISSLQPEDFATYYCQQYGQYLYTFGQGTKVEIK
1.85 nM | VL Y94E (antibody, V domains shown) VH: EVQLVESGGGLVQPGGSLRLSCAASGFNIYYNYIHWVRQAPGKGLEWVAEFSPYSGSTYYADSVKGRFTISADTSKNTAYLQMNSLRAEDTAVYYCARSAAIVDWYDYFKGFDYWGQGTLVTVSS VL: DIQMTQSPSSLSASVGDRVTITCRASQSVSSAVAWYQQKPGKAPKLLIYSASSLYSGVPSRFSGSRSGTDFTLTISSLQPEDFATYYCQQYGSELYTFGQGTKVEIK
1.27 nM | VL S93T (antibody, V domains shown) VH: EVQLVESGGGLVQPGGSLRLSCAASGFNIYYNYIHWVRQAPGKGLEWVAEFSPYSGSTYYADSVKGRFTISADTSKNTAYLQMNSLRAEDTAVYYCARSAAIVDWYDYFKGFDYWGQGTLVTVSS VL: DIQMTQSPSSLSASVGDRVTITCRASQSVSSAVAWYQQKPGKAPKLLIYSASSLYSGVPSRFSGSRSGTDFTLTISSLQPEDFATYYCQQYGTYLYTFGQGTKVEIK
3.42 nM | VL Y91E (antibody, V domains shown) VH: EVQLVESGGGLVQPGGSLRLSCAASGFNIYYNYIHWVRQAPGKGLEWVAEFSPYSGSTYYADSVKGRFTISADTSKNTAYLQMNSLRAEDTAVYYCARSAAIVDWYDYFKGFDYWGQGTLVTVSS VL: DIQMTQSPSSLSASVGDRVTITCRASQSVSSAVAWYQQKPGKAPKLLIYSASSLYSGVPSRFSGSRSGTDFTLTISSLQPEDFATYYCQQEGSYLYTFGQGTKVEIK
363 nM | VH Y30K (antibody, V domains shown) VH: EVQLVESGGGLVQPGGSLRLSCAASGFNIKYNYIHWVRQAPGKGLEWVAEFSPYSGSTYYADSVKGRFTISADTSKNTAYLQMNSLRAEDTAVYYCARSAAIVDWYDYFKGFDYWGQGTLVTVSS VL: DIQMTQSPSSLSASVGDRVTITCRASQSVSSAVAWYQQKPGKAPKLLIYSASSLYSGVPSRFSGSRSGTDFTLTISSLQPEDFATYYCQQYGSYLYTFGQGTKVEIK
3.02 nM | VL Y91W (antibody, V domains shown) VH: EVQLVESGGGLVQPGGSLRLSCAASGFNIYYNYIHWVRQAPGKGLEWVAEFSPYSGSTYYADSVKGRFTISADTSKNTAYLQMNSLRAEDTAVYYCARSAAIVDWYDYFKGFDYWGQGTLVTVSS VL: DIQMTQSPSSLSASVGDRVTITCRASQSVSSAVAWYQQKPGKAPKLLIYSASSLYSGVPSRFSGSRSGTDFTLTISSLQPEDFATYYCQQWGSYLYTFGQGTKVEIK
20.2 nM | VH Y30D (antibody, V domains shown) VH: EVQLVESGGGLVQPGGSLRLSCAASGFNIDYNYIHWVRQAPGKGLEWVAEFSPYSGSTYYADSVKGRFTISADTSKNTAYLQMNSLRAEDTAVYYCARSAAIVDWYDYFKGFDYWGQGTLVTVSS VL: DIQMTQSPSSLSASVGDRVTITCRASQSVSSAVAWYQQKPGKAPKLLIYSASSLYSGVPSRFSGSRSGTDFTLTISSLQPEDFATYYCQQYGSYLYTFGQGTKVEIK
2640 nM | VH Y31L (antibody, V domains shown) VH: EVQLVESGGGLVQPGGSLRLSCAASGFNIYLNYIHWVRQAPGKGLEWVAEFSPYSGSTYYADSVKGRFTISADTSKNTAYLQMNSLRAEDTAVYYCARSAAIVDWYDYFKGFDYWGQGTLVTVSS VL: DIQMTQSPSSLSASVGDRVTITCRASQSVSSAVAWYQQKPGKAPKLLIYSASSLYSGVPSRFSGSRSGTDFTLTISSLQPEDFATYYCQQYGSYLYTFGQGTKVEIK
1.41 nM | VL Y94R (antibody, V domains shown) VH: EVQLVESGGGLVQPGGSLRLSCAASGFNIYYNYIHWVRQAPGKGLEWVAEFSPYSGSTYYADSVKGRFTISADTSKNTAYLQMNSLRAEDTAVYYCARSAAIVDWYDYFKGFDYWGQGTLVTVSS VL: DIQMTQSPSSLSASVGDRVTITCRASQSVSSAVAWYQQKPGKAPKLLIYSASSLYSGVPSRFSGSRSGTDFTLTISSLQPEDFATYYCQQYGSRLYTFGQGTKVEIK
2.28 nM | VL S93I (antibody, V domains shown) VH: EVQLVESGGGLVQPGGSLRLSCAASGFNIYYNYIHWVRQAPGKGLEWVAEFSPYSGSTYYADSVKGRFTISADTSKNTAYLQMNSLRAEDTAVYYCARSAAIVDWYDYFKGFDYWGQGTLVTVSS VL: DIQMTQSPSSLSASVGDRVTITCRASQSVSSAVAWYQQKPGKAPKLLIYSASSLYSGVPSRFSGSRSGTDFTLTISSLQPEDFATYYCQQYGIYLYTFGQGTKVEIK
261 nM | VH Y30S (antibody, V domains shown) VH: EVQLVESGGGLVQPGGSLRLSCAASGFNISYNYIHWVRQAPGKGLEWVAEFSPYSGSTYYADSVKGRFTISADTSKNTAYLQMNSLRAEDTAVYYCARSAAIVDWYDYFKGFDYWGQGTLVTVSS VL: DIQMTQSPSSLSASVGDRVTITCRASQSVSSAVAWYQQKPGKAPKLLIYSASSLYSGVPSRFSGSRSGTDFTLTISSLQPEDFATYYCQQYGSYLYTFGQGTKVEIK
